Measurements from the DeepSol protein solubility set.

Experiment: soluble on expression in E. coli; label from the status in PepcDB or PDB records

| Sequence | soluble on expression in E. coli |
| --- | --- |
| MSKPMKILLANPRGFCAGVDRAISIVERALELYQPPIYVRHEVVHNRFVVEGLKQRGARFVEELNEVPDDNIVIFSAHGVSQAVRQEAKERSLTVFDATCPLVTKVHMEVARASRKHMEVVLIGHAGHPEVEGTMGQYASDTGGMYLVEKPEDVVSLQAKVKDPSNLHYVSQTTLSVDETADVIDELRRVFPKIQGPRKDDICYATQNRQDAVRILAEQVDVMVVVGSKNSSNSTRLKELAEKLGTPGYLIDCPQDIDPEWFVDAQLIGVTAGASAPEELVNQILDRIKELGATSVEEVLGREENMFFEVPKELQIKQVD | soluble |
| MSKTHPPELKKYMDKEMDLKLNGNRRVSGILRGFDPFMNMVIDEAVEYQKDGGSVNLGMTVIRGNSVVIMEPKERIS | not soluble |
| MSKTTQSRETTLAGHPVEYEVRRSEDATEPRIDIDIRGVTVVLPAESEESPEALLSENLNWVLETKRTYERHRERAPERRFEPGAAFPYLGDDHEIVVEPRPAHGVGDGEIRLRQSTVDQSSLKRVLENFYRSRAREHLTDRTDALADSMNHTYDRIELRNQRTRWGSCSTNGVLSFNWRLVMAPPDVIDYVVVHELAHLRESGHNDRFWRLVEMEIPEYRELSDWLDTNSVDLIFSKDDLLEHHHHHH | soluble |
| MSLAADTPTTCCFSYTSRQIPQNFIADYFETSSQCSKPGVIFLTKRSRQVCADPSEEWVQKYVSDLELSA | soluble |
| MSLAANTQDVEITIPQGASLYQVSERLYDEGVIRSRLWFRYQGKISQADRNIRPGAYTFSPDTDLEEIFTLLQKGVPEQPVIMTIPEGFTLYEIAQRVESLGFGLAEEFIKATQDYFKSRDYSFDTSELYFEMEGYLYPDTYHLKKNQDMKAIVHSLVSPIDAFFSEEYIKRAEELGLSLHEVLTIASIIEREAYHDEERATVSGVIFNRLGIRMSLQIDATVIYGLGEGKEHRNRVLYADLETPNPFNTYMNTGIPPGPIAAPSKASIHATLYPEDHSYLYYVLGEGGHVFSETYQEHLKHVDAYRRRINEGHHHHHH | not soluble |
| MSLAASKGNLLSPDRILTVAHRGASGYVPEHTILSYETAQKMKADFIELDLQMTKDGKLIVMHDEKLDRTTNGMGWVKDHTLADIKKLDAGSWFNEAYPEKAKPQYVGLKVPTLEEVLDRFGKHANYYIETKSPDTYPGMEEKLIASLQKHKLLGKHSKPGQVIIQSFSKESLVKVHQLQPNLPTVQLLEAKQMASMTDAALEEIKTYAVGAGPDYKALNQENVRMIRSHGLLLHPYTVNNEADMHRLLDWGVTGVFTNYPDLFHKVKKGYEGHHHHHH | soluble |
| MSLAATNKRHSTSDKMHFPRSSLQPITTLGKSEFGEVFLAKAQGLEEGVAETLVLVKSLQSKDEQQQLDFRRELEMFGKLNHANVVRLLGLCREAEPHYMVLEYVDLGDLKQFLRISKSKDEKLKSQPLSTKQKVALCTQVALGMEHLSNNRFVHKDLAARNCLVSAQRQVKVSALGLSKDVYNSEYYHFRQAWVPLRWMSPEAILEGDFSTKSDVWAFGVLMWEVFTHGEMPHGGQADDEVLADLQAGKARLPQPEGCPSKLYRLMQRCWALSPKDRPSFSEIASALGDSTVDSKEGHHHHHH | soluble |
| MSLADKRIGILVYDGVLTSDVTAPLEVFGVASRLTWFSDYEVLTISVSDQKTITTEEGLEIGVDAWIGDQPELDVLVLTSSYDMDALIENKDLIHFIQTTSKAADWMASNCSGAYLLAEAGLLNGKKATTWAGGENGLQKDYPAVDVQFNQNFVVDDGVITSNGSLVSYQAALKLLHLMTSESKAQEVADALQYSRFSTEGHHHHHH | soluble |
| MSLADPIKIGVIAEAQAIAGASIPQAAQLAAEEINAKGGIDGRKIEIVSYDNHSSSADSVRAFQRAVNEDKVNAVIASYISEVVLALMPWASRLKTPFVTPGAASNEITKAINKDYEKNKYTFHGYLTSGELAQSVCDAAKDLLVDARQMKSAVIMSEDAAWTKPLDVGYQECLPKVGLKVLDHIRFSPDTTDFTPIFNKIEGSKPDVIITGISHVGVQPTVQWKNQQVPIPMFGIASQATNETFGKDTNNASDGVLYQGVSGPGVAVTSKSVPFAENFKKKYGNYPSYAGYTAYDEVYYIAEAVKRAGSTDGEKLVEALEKTDYEGTIGRVQFYGKDEPFTHGLKYGKGLLTGLMLQWQDGKQVAVWPPEVAKAEGHHHHHH | soluble |
| MSLADRLLDIKRIYHEPGIERFPRARAVLERYPDAERVEVLSHQAIPGLYGNEGNVEDWVRNKREVMVIGEKKSLSARRNERSSDWIAPSTANGCAMACSYCYVPRRKGYANPITVFANIEKITGYLERHAARQGAKPEPNQCDPIDWVYDIGENSDCSADAMVSDNVRDLVDLFGRIPNAKASFATKLVNRDLLTYEPRGGTRVRFSLMPAETSRLVDVRTSKISDRIAAIDDFVEAGYEVHLNFSPVIVHENWIADWADLLEQIADQTNDRTRRQLAAEVIFLTHNEGLHDVNLGWHPKGEELLWRPDLQQLKRSQSGQWNVRYKSPWKGKWVQQMTDLVADRLPDCRIRYAEGHHHHHH | not soluble |
| MSLADVILHAFNWPYATVEARAKQIADAGYRKVLVAPAYRSEGSAWWARYQPQDIRLIDNPLGDTAAFKKMVQALASNGVETYADIVFNHMANEAATRSDLNYPGGAVLSQYAANPGRYDSLRLFGTLQSNFLSASDFGPAQCISNYNDAYQVRNYRICGGGSDPGLPDLLGNDWVVQQQRAYLQALKSMGVTGFRVDAAKHMTFDHLNRVFDAGIRSGVYVFGEVITGGGTGNGDYDQFLAPYLQSTPHAAYDFPLFNAVRNAFAIGASMQQLVDPAASGQALPGNRAVTFAVTHDIPNNAGFRYAILDPVDETLAYAYLIGRNGGMPMLYTDNNESGDNRWVNAYLRDDLRRMIGFHNGVQGTDMQVLSSSSCHILFRRGSLGIVGINKCGNPVTTTVGMNNSVLYWNADYVDALGSGNVVRISSSSYTFTLPARGARMWRREGHHHHHH | not soluble |
| MSLAEGGFVDDAKASFNLRNFYINRNFVDPANPQGKAEEWTQSFILDARSGFTQGTIGFGVDMLGLYSLKLDGGKGTAGTHLLPVHDDGRPADDFGRLGVALKARLSQTELKVGEWMPVLPILRSDDGRSLPQTFRGGQLTSRELDGLTLYAGQFRGNSPRNDASMEDMFMQGRTGITSDRFNFAGGEYTFNDKRTMLGLWNAQLKDIYRQQYVNLVHSQPLGEWTLGANLGYFLGKEDGSARAGDLDNRTASAMLSARYKGHTFYIGLQKVSGDDAWMRVNGTSGGTLANDSYNASFDNAKERSWQLRHDFNFVTVGLPGLTLMNRYIKGDNVHTSAVDDGKEWARETELAYVVQSGVFKDLSVKWRNSTMRRDFSSNAFDENRVIVSYPLNLLEGHHHHHH | soluble |
| MSLAEPRYKADIGGGSLKLPESRIIAGLLLEGVTEDQWRHAIEVENVLQRRSPGTAKRQSSLMRNRLETMGPELWQMVRDGSTQVAIQAVFAAAIKHSTLLGDFLDLVVRDQFRMFRPDLPRKMWDQYLEQCRNRDPLMPVWQDSTANKLADCVYRILVEVGYITDSKTYRLKSVRISGEVMSYLRENNEQYVIRCIQVSIEGHHHHHH | soluble |
| MSLAFDTLFLNARFDGGTRHHIAVKDGRIAAITSVDQPPAGAETIDLKDALVVPGFVEGHIHLDTSFYGDAWRPHKPCADGFNVHERVAFQAQNMAEAAPMDVRARNQLDLCIGHGTTQMRSHVIVDGSVGLKSLETILRVREEYNGLIDIQLVAFPQSGILSSPGTAQLLDEAIGLGANLVGGLDPASFDRDVEKHLDVVFGVANKHGVDIDIHLHDMGTLGAFEIEQIAARTRALGMEGRVAVSHAYGLGDIPADYLKKVAEILARSGVAIMTNAPGARPFPPILALRNAGVTVFSGNDNIRDSWWPYGDGDMLRRATTLGYRSGFNIDEELRAAFDVVTASGAKALRLEGYGLRIGAKADFVALNAEHVPEAVVAVPQGRSVYKDGRLVAANGRIVGKSGEGHHHHHH | not soluble |
| MSLAFYIATFDIGTTEVKAALADRDGGLHFQRSIALETYGDGNGPVEQDAGDWYDAVQRIASSWWQSGVDARRVSAIVLSGQMQNFLPLDQDHEPLHRAVLYSDKRPLKEAEEINARHGADNLWSALENPMTAASILPKLVFWRASFPQAFGRLRHVVLGAKDYVVLRLTGRHATDRTNASTTGLYRPKDDAWHVELLADYGFSLDLMPRLLEPGEQVGGVSALAARQTGFVSGTPVLCGLGDAGAATLGVGVLDDEDAYLHLGTTGWLARLTQTDPVGDMPVGTIFRLAGIIAGKTLQVAPVLNAGNILQWALTLVGHRPGEDCAEYFHMAAAEVQGVTVPDGLLFVPYLHAERCPVELPAPRGALLGVTGATTRAQILLAVLEGAALSLRWCAELLGMEKVGLLKVVGGGARSEAWLRMIADNLNVSLLVKPDAHLHPLRGLAALAAVELEWSHSIQDFLREADLREPASNILHPQPCDEGRRRRKFERFKQCVETLGRLDEGHHHHHH | soluble |
| MSLAKILVIDDESTILQNIKFLLEIDGNEVLTASSSTEGLRIFTENCNSIDVVITDMKMPKLSGMDILREIKKITPHMAVIILTGHGDLDNAILAMKEGAFEYLRKPVTAQDLSIAINNAINRKKLLMENERMTQELLAHRNYLQGLHDSAAKILLNMLPKNLPDIEGFNFAVDYKSCDGVGGDMYDVCDIGDYICFYVFDVSHHGILAAVISIIIKSFLQNIEYNYRQGINKRRFPEIVLDLNLELLSNTAQNVFASLFLGFIDKNSKKLYTVSAGHIPQYIMKENGLVPLESTGPILGVFEDSTYKCAVNQLEPGDKVLLFTDGIIESPSDSSDESSDGNQIFGYENMVKVLESCKNEPISTTIDKIMKAVKDFSGNRCTDDMTILGVEVLKENEGHHHHHH | soluble |
| MSLAKVLVIDEDRSTLARLELLLTKDGYETVTASTGTDGLNRYVERYPDLVILDVFLSDVGGFTVLEELLEENEQAMVILMTAQLDMETAIRAMKLGAFDYVPKTADMAELLSVVHKASNTLETDRQQGGLSGEAFRNYKAGDIIGAGREMREIFKMVGVLSRSRATVLIEGESGTGKELVAKVIHKHTSSNEPFIAVNCSAIVETLLESELFGHEKGSFTSAFNRQLGKFELGRYGTVFLDEISEMSINLQAKLLRVLQEMEFERVGGKDKIQVHARIITATNKNLRTLVREGKFRADLYYRLNIVSLKIPPLRERQEDIPLLVNHLIAKIGRDLSRRISGVSEEVMEAFLRYTWPGNVRELENLLVRAGVMAKGRILDKSDFPELFKESGEGHHHHHH | not soluble |
| MSLALNLSKAVVGYLQVRPEEKFTARQIAEWVFATYPAECQEKRANSRGDYIKSDADLVQQLVAEISSQRPRMQMKHPALKTTEGRPRKYYYSEKSDSAEVAAAEGEGATAAADIGTSMLDEHALYPLLSQYLWEEFGVFSKRINEKRSSNKRGPNGNRWLYPDMVGMQDLGADWHREVRDCVKQYSDKRTKLWSFEVKLLINRSNIRECFFQAVSNSSWSNFGYLVAAEVSGQETLKELRMLFAAHGIGFIRLDVDNPADSQVLIPARERDAIDWDMANRLATENRDFLNYVKQVKQFYQTGEARFKDWDVPEEYSIQEGHHHHHH | soluble |
| MSLALPDFEFSFATRDEFDRKPVAKKLINILNSNIDISPMVIDGSWGTGKTEFCRKTIKLINDEFNETLICAYIDAFEADHTNDPLIPIVAAISELIEDSSKKIAFLNKAKAIFRYGLKASARASVAWLLRSNTETLDQEFQKELEKAVDEGSQNLVDGVITDYQEAKKDINSLKLILQDLTVEKKLVIFIDELDRCKPDFAIAIIEKIKHVFDVANVKFILVTNYTQMKASVNHCYGLALDAHRYLDKFIKFKFYLPTDKYSNKRKQHVSYHYADQLIRNSDILKAHSRYYLDSRFDLLNNLIIINELSLREISNFILYLELFHTLKSDQFAPDKWYHLSIFIIFILYFKPELREKIRKKDILASELCKFLGINSHIKAKELTHDKDGVSRDIATLIMIFLNDNSIPGYQSDDEEDFKGWLSKLALSTNVGYLELITYIEQFINDIFNEFQFVTKAAALEHHHHHH | soluble |
